Experimental data: PMC6580504, “A novel hydroxycinnamoyl transferase for synthesis of hydroxycinnamoyl spermine conjugates in plants” (BMC Plant Biology, 2019)

Legend:
SmSpmHT = molecular target: T1, SmSpmHT (Solanum virginianum, UniProt A0A1I9J7Z8); assay: spectrophotometric microplate assay; type: biochemical; conditions: 0.1 M Tris-HCl, 10 mM EDTA, pH 9.0, 30 °C
T1 construct: full-length ORF, 447 residues; N-terminal His-SUMO fusion from pRham N-His SUMO Kan, SUMO tag removed with SUMO Express Protease; bacterial expression
T1 sequence (A0A1I9J7Z8 1-447): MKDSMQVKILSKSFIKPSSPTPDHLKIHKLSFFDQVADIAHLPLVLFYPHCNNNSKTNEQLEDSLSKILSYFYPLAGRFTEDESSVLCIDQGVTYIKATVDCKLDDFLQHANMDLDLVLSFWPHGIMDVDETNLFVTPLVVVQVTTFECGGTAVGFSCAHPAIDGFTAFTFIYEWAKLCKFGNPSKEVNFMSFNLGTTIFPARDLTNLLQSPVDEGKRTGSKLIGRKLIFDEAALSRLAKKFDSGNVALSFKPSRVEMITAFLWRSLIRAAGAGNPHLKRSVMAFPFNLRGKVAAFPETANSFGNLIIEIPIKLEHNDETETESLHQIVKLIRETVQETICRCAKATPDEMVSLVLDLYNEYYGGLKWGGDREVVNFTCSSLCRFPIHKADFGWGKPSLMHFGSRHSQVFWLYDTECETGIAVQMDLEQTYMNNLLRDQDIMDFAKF

purified protein [1] = substrate: COc1cc(/C=C/C(=O)SCCNC(=O)CCNC(=O)[C@H](O)C(C)(C)COP(=O)(O)OP(=O)(O)OC[C@H]2O[C@@H](n3cnc4c(N)ncnc43)[C@H](O)[C@@H]2OP(=O)(O)O)ccc1O; assay: purified protein; type: biochemical, Solanum richardii; conditions: 2.5 mM spermine, 0.1 M Tris-HCl, 10 mM EDTA, pH 9.0, 30 °C, acyl donor varied 0 to 240 μM
purified protein [2] = substrate: CC(C)(COP(=O)(O)OP(=O)(O)OC[C@H]1O[C@@H](n2cnc3c(N)ncnc32)[C@H](O)[C@@H]1OP(=O)(O)O)[C@@H](O)C(=O)NCCC(=O)NCCSC(=O)/C=C/c1ccc(O)cc1; assay: purified protein; type: biochemical, Solanum richardii; conditions: 2.5 mM spermine, 0.1 M Tris-HCl, 10 mM EDTA, pH 9.0, 30 °C, acyl donor varied 0 to 240 μM
purified protein [3] = substrate: CC(C)(COP(=O)(O)OP(=O)(O)OC[C@H]1O[C@@H](n2cnc3c(N)ncnc32)[C@H](O)[C@@H]1OP(=O)(O)O)[C@@H](O)C(=O)NCCC(=O)NCCSC(=O)/C=C/c1ccc(O)c(O)c1; assay: purified protein; type: biochemical, Solanum richardii; conditions: 2.5 mM spermine, 0.1 M Tris-HCl, 10 mM EDTA, pH 9.0, 30 °C, acyl donor varied 0 to 240 μM

CC(C)(COP(=O)(O)OP(=O)(O)OC[C@H]1O[C@@H](n2cnc3c(N)ncnc32)[C@H](O)[C@@H]1OP(=O)(O)O)[C@@H](O)C(=O)NCCC(=O)NCCSC(=O)/C=C/c1ccc(O)c(O)c1 [caffeoyl-CoA]
spectrophotometric microplate assay (SmSpmHT; acyl donor, 120 μM, spermine 2.5 mM): The recombinant proteins showed the same substrate specificity, pH preference, and catalytic activity as SrSpmHT

NCCCNCCCCNCCCN [spermine]
spectrophotometric microplate assay (SmSpmHT; acyl acceptor, 2.5 mM, hydroxycinnamoyl-CoA donor 120 μM): The recombinant proteins showed the same substrate specificity, pH preference, and catalytic activity as SrSpmHT

B1: SrSpmHT (Solanum richardii) (protein)
chain: MKDSMQVNILSKSFIKPSSPTPDHLKIHKLSFFDQVADIAHLPLVLFYPHCNNNSKTNEQLEDSLSKILSYFYPLAGRFTEDESSVLCIDQGVTYIKATVDCKLDDFLQHANMDLDLVLSFWPHGIMDVDETNLFVTPLVVVQVTTFECGGTAVGFSCAHPAIDGFTAFTFIYEWAKLCKFGNPSKEVNFMSFNLGTTIFPARDLTNLLQSPVDEGKRTGSKLIGRKLIFDEAALSRLAKKFDSGNVALSFKPSRVEMITAFLWRSLIRAAGAGNPHLKRSVMAFPFNLRGKVAAFPETANSFGNLIIEIPIKLEHNDETETESLHQIVKLIRETVQETICRCAKATPDEMVSLVLDLYNEYYGGLKWGGDREVVNFTCSSLCRFPIHKADFGWGKPSLMHFGSRHSQVFWLYDTECETGIAVQMDLEQTYMNNLLRDQDIIDFAKF
notes: full-length ORF, 447 residues; N-terminal His-SUMO fusion from pRham N-His SUMO Kan, SUMO tag removed with SUMO Express Protease
Km (purified protein [1]): 106.1 ± 9.0 µM | Vmax (purified protein [1]): 13.4 ± 0.48 µmol/min/mg | kcat (purified protein [1]): 13.9 ± 0.5 s⁻¹ | kcat/Km (purified protein [1]): 132000 ± 6000 M⁻¹ s⁻¹ | Km (purified protein [2]): 49.0 ± 1.2 µM | Vmax (purified protein [2]): 8.15 ± 0.204 µmol/min/mg | kcat (purified protein [2]): 8.5 ± 0.21 s⁻¹ | kcat/Km (purified protein [2]): 173000 ± 1000 M⁻¹ s⁻¹ | Km (purified protein [3]): 478.4 ± 46.5 µM | Vmax (purified protein [3]): 68.8 ± 6.08 µmol/min/mg | kcat (purified protein [3]): 71.5 ± 6.3 s⁻¹ | kcat/Km (purified protein [3]): 150000 ± 1000 M⁻¹ s⁻¹
